Data taken from paper doi:10.1101/2020.04.15.043133.
Read-outs that look alike come from different tables or passages of the source.

What was measured:
[1] = biological target: CR3 headpiece fragment (integrin αMβ2 headpiece) (human) (UniProt P11215); assay: SEC
[2] = biological target: iC3b biotinylated on the thioester cysteine (UniProt P01024); assay: SPR
[3] = biological target: C3d (human) (UniProt P01024); assay: SPR
[4] = biological target: iC3b biotinylated on the thioester cysteine (UniProt P01024); assay: SPR; remark: listed apart in the source

stoichiometry N [1]: 2
Kd [2]: 6.2 nM
fold lower koff than in the Mg2+ buffer [2]: 30 fold
Kd [3]: 515 nM
Kd [4]: 30 nM
Substance: CR3 headpiece fragment (integrin αMβ2 headpiece) (from UniProt P11215 17-773; P05107 23-504) (receptor)
